From patent US12269859B2, “Synthetic immune receptors and methods of use thereof” (Angeles Therapeutics, Inc., priority 2016, dated 2025)

Test system: target antigen-expressing cell line
Assay: Jurkat NFAT-GFP assay, coculture with target cell lines expressing the respective target antigen (summary Table 10A)
Assay type: cell-based, human
Design: key: The signs +/−, +, 2+ etc. after the name of the cell lines indicate the relative degree of positivity on the Jurkat-NFAT-GFP assay as measured by the % GFP positive cells; +: relative degree of positivity on the Jurkat-NFAT-GFP assay as measured by the % GFP positive cells; 2+: relative degree of positivity on the Jurkat-NFAT-GFP assay as measured by the % GFP positive cells
How it was run: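 Jurkat cells carrying an NFAT-driven GFP reporter and lentivirally expressing a SIR were cocultured with antigen-bearing target cells (E:T ~1:2) for about 4–18 h. GFP induction read by flow cytometry as % GFP+ cells, scored positive and graded (+/−, +, 2+) against parental Jurkat-NFAT-GFP cells.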

| Molecule | NFAT-GFP ASSAY Positive Cell lines (coculture with L363 cells) | NFAT-GFP ASSAY Positive Cell lines (coculture with NALM6 cells) | NFAT-GFP ASSAY Positive Cell lines (coculture with RAJI cells) | NFAT-GFP ASSAY Positive Cell lines (coculture with U266 cells) | NFAT-GFP ASSAY Positive Cell lines (coculture with Bv173 cells) | NFAT-GFP ASSAY Positive Cell lines (coculture with KG1 cells) | NFAT-GFP ASSAY Positive Cell lines (coculture with MOLM13 cells) | NFAT-GFP ASSAY Positive Cell lines (coculture with THP1 cells) |
| --- | --- | --- | --- | --- | --- | --- | --- | --- |
| 010417-V07 (protein) MALPVTALLLPLALLLHAARPLEGKPIPNPLLGLDSTGSGEDLKNVFPPEVAVFEPSKAEIAHTQKATLVCLATGFYPDHVELSWWVNGKEVHSGVCTDPQPLKEQPALNDSRYCLSSRLRVSATFWQNPRNHFRCQVQFYGLSENDEWTQDRAKPVTQIVSAEAWGRADCGITSASYHQGVLSATILYEILLGKATLYAVLVSALVLMAMVKRKDSRGRAKRSGSGATNFSLLKQAGDVEENPGPTSTMALPVTALLLPLALLLHAARPDIQMTQSPSSLSASVGDRVTITCKASQDVGIAVAWYQQKPGKVPKLLIYWASTRHTGVPDRFSGSGSGTDFTLTISSLQPEDVATYYCQQYSSYPYTFGQGTKVEIKGGGGSGGGGSGGGGSEVQLVESGGGLVQPGGSLRLSCAASGFDFSRYWMSWVRQAPGKGLEWIGEINPDSSTINYAPSLKDKFIISRDNAKNSLYLQMNSLRAEDTAVYYCARPDGNYWYFDVWGQGTLVTVSSTREAAAKEIVLTQSPATLSLSPGERATLSCSASSSVSYMHWYQQKPGQAPRLLIYDTSKLASGIPARFSGSGSGTDFTLTISSLEPEDVAVYYCFQGSVYPFTFGQGTKLEIKRGGGGSGGGGSGGGGSQVQLQESGPGLVKPSQTLSLTCTVSGGSISTSGMGVGWIRQHPGKGLEWIGHIWWDDDKRYNPALKSRVTISVDTSKNQFSLKLSSVTAADTAVYYCARMELWSYYFDYWGQGTLVTVSSTREQKLISEEDGSGIQNPDPAVYQLRDSKSSDKSVCLFTDFDSQTNVSQSKDSDVYITDKCVLDMRSMDFKSNSAVAWSNKSDFACANAFNNSIIPEDTFFPSSDVPCDVKLVEKSFETDTNLNFQNLSVIGFRILLLKVAGFNLLMTLRLWSSRAKRSGSGVKQTLNFDLLKLAGDVESNPGPSRGHMTEYKPTVRLATRDDVPRAVRTLAAAFADYPATRHTVDPDRHIERVTELQELFLTRVGLDIGKVWVADDGAAVAVWTTPESVEAGAVFAEIGPRMAELSGSRLAAQQQMEGLLAPHRPKEPAWFLATVGVSPDHQGKGLGSAVVLPGVEAAERAGVPAFLETSAPRNLPFYERLGFTVTADVEVPEGPRTWCMTRKPGA | (+), L363 (+), U266 | (+), L363 (+), U266 | RAJI (+), NALM6 | (+) | – | – | – | – |
| 022817-N08 (protein) MALPVTALLLPLALLLHAARPDVVMTQTPLSLSVTPGQPASISCRSSQSLVHNNGNTYLHWYLQKPGQSPQLLIYKVSNRFSGVPDRFSGSGSGTDFTLKISRVEAEDVGVYFCSQSTHVPPYTFGGGTKVEIKLEEQKLISEEDLGSGEDLKNVFPPEVAVFEPSKAEIAHTQKATLVCLATGFYPDHVELSWWVNGKEVHSGVCTDPQPLKEQPALNDSRYCLSSRLRVSATFWQNPRNHFRCQVQFYGLSENDEWTQDRAKPVTQIVSAEAWGRADCGITSASYHQGVLSATILYEILLGKATLYAVLVSALVLMAMVKRKDSRGRAKRSGSGATNFSLLKQAGDVEENPGPTSMDWIWRILFLVGAATGAHSFEEVQLVESGGGLVQPGGSLRLSCAASGFTFSDYYMAWVRQAPGKGLEWVAEINYDGSSTYYVDSVKGRFTISRDNAKNSLYLQMNSLRAEDTAVYYCARDRGFYFDYWGQGTTVTVSSTREQKLISEEDLGSGIQNPDPAVYQLRDSKSSDKSVCLFTDFDSQTNVSQSKDSDVYITDKCVLDMRSMDFKSNSAVAWSNKSDFACANAFNNSIIPEDTFFPSSDVPCDVKLVEKSFETDTNLNFQNLSVIGFRILLLKVAGFNLLMTLRLWSSRAKRSGSGVKQTLNFDLLKLAGDVESNPGPSRGHMTEYKPTVRLATRDDVPRAVRTLAAAFADYPATRHTVDPDRHIERVTELQELFLTRVGLDIGKVWVADDGAAVAVWTTPESVEAGAVFAEIGPRMAELSGSRLAAQQQMEGLLAPHRPKEPAWFLATVGVSPDHQGKGLGSAVVLPGVEAAERAGVPAFLETSAPRNLPFYERLGFTVTADVEVPEGPRTWCMTRKPGA | (+/−) | – | – | U266 (+/−), L363 | – | – | – | – |
| 111915-U05 (protein, Polynucleotide encoding a Synthetic Immune Receptor (SIR)) MALPVTALLLPLALLLHAARPDEFEVQLVESGGGLVQAGGSLRLSCVASGISSSKRNMGWYRQAPGKQRESVATISSGGNKDYTDAVKDRFTISRDTTKNTVYLQMNSLKPEDTAVYYCKIEAGTGWATRRGYTYWGQGTLVTVSSLEGKPIPNPLLGLDSTGSGEDLKNVFPPEVAVFEPSEAEISHTQKATLVCLATGFYPDHVELSWWVNGKEVHSGVCTDPQPLKEQPALNDSRYCLSSRLRVSATFWQNPRNHFRCQVQFYGLSENDEWTQDRAKPVTQIVSAEAWGRADCGFTSESYQQGVLSATILYEILLGKATLYAVLVSALVLMAMVKRKDSRGRAKRSGSGATNFSLLKQAGDVEENPGPTSMDWIWRILFLVGAATGAHSFEVQLVESGGGSVQPGGSLTLSCGTSGRTFNVMGWFRQAPGKEREFVAAVRWSSTGIYYTQYADSVKSRFTISRDNAKNTVYLEMNSLKPEDTAVYYCAADTYNSNPARWDGYDFRGQGTQVTVSSTREQKLISEEDGSGIQNPDPAVYQLRDSKSSDKSVCLFTDFDSQTNVSQSKDSDVYITDKCVLDMRSMDFKSNSAVAWSNKSDFACANAFNNSIIPEDTFFPSPESSCDVKLVEKSFETDTNLNFQNLSVIGFRILLLKVAGFNLLMTLRLWSSRAKRSGSGVKQTLNFDLLKLAGDVESNPGPSRGHMTEYKPTVRLATRDDVPRAVRTLAAAFADYPATRHTVDPDRHIERVTELQELFLTRVGLDIGKVWVADDGAAVAVWTTPESVEAGAVFAEIGPRMAELSGSRLAAQQQMEGLLAPHRPKEPAWFLATVGVSPDHQGKGLGSAVVLPGVEAAERAGVPAFLETSAPRNLPFYERLGFTVTADVEVPEGPRTWCMTRKPGA | – | – | – | – | (+/−), THP1 (+/−), | KG1 (2+) | MOLM13 (+/−), Bv173 | (+/−), THP1 (+/−), |
| 012517-D12 (protein) MALPVTALLLPLALLLHAARPLEGKPIPNPLLGLDSTGSGEDLKNVFPPEVAVFEPSKAEIAHTQKATLVCLATGFYPDHVELSWWVNGKEVHSGVCTDPQPLKEQPALNDSRYCLSSRLRVSATFWQNPRNHFRCQVQFYGLSENDEWTQDRAKPVTQIVSAEAWGRADCGITSASYHQGVLSATILYEILLGKATLYAVLVSALVLMAMVKRKDSRGRAKRSGSGATNFSLLKQAGDVEENPGPTSMALPVTALLLPLALLLHAARPDVVMTQTPLSLSVTPGQPASISCRSSQSLVHSNGLTYLHWYLQKPGQSPQLLIYKVSNRFSGVPDRFSGSGSGTDFTLKISRVEAEDVGVYFCSQSTHVPPFTFGGGTKVEIKGGGGSGGGGSGGGGSEVQLVESGGGLVQPGGSLRLSCAASGFTFSDYYMAWVRQAPGKGLEWVASINYDGESTYYVDSVKGRFTISRDNAKNSLYLQMNSLRAEDTAVYYCARDRGYYFDYWGQGTTVTVSSTREQKLISEEDGSGIQNPDPAVYQLRDSKSSDKSVCLFTDFDSQTNVSQSKDSDVYITDKCVLDMRSMDFKSNSAVAWSNKSDFACANAFNNSIIPEDTFFPSSDVPCDVKLVEKSFETDTNLNFQNLSVIGFRILLLKVAGFNLLMTLRLWSSRAKRSGSGVKQTLNFDLLKLAGDVESNPGPSRGHMTEYKPTVRLATRDDVPRAVRTLAAAFADYPATRHTVDPDRHIERVTELQELFLTRVGLDIGKVWVADDGAAVAVWTTPESVEAGAVFAEIGPRMAELSGSRLAAQQQMEGLLAPHRPKEPAWFLATVGVSPDHQGKGLGSAVVLPGVEAAERAGVPAFLETSAPRNLPFYERLGFTVTADVEVPEGPRTWCMTRKPGA | U266 (+), L363 (+) | – | – | U266 (+), L363 (+) | – | – | – | – |
| 010417-Z03 (protein) MALPVTALLLPLALLLHAARPLEGKPIPNPLLGLDSTGSGEDLKNVFPPEVAVFEPSKAEIAHTQKATLVCLATGFYPDHVELSWWVNGKEVHSGVCTDPQPLKEQPALNDSRYCLSSRLRVSATFWQNPRNHFRCQVQFYGLSENDEWTQDRAKPVTQIVSAEAWGRADCGITSASYHQGVLSATILYEILLGKATLYAVLVSALVLMAMVKRKDSRGRAKRSGSGATNFSLLKQAGDVEENPGPTSTMALPVTALLLPLALLLHAARPDIQMTQSPSSLSASVGDRVTITCKASQDVGIAVAWYQQKPGKVPKLLIYWASTRHTGVPDRFSGSGSGTDFTLTISSLQPEDVATYYCQQYSSYPYTFGQGTKVEIKGGGGSGGGGSGGGGSEVQLVESGGGLVQPGGSLRLSCAASGFDFSRYWMSWVRQAPGKGLEWIGEINPDSSTINYAPSLKDKFIISRDNAKNSLYLQMNSLRAEDTAVYYCARPDGNYWYFDVWGQGTLVTVSSTREAAAKEIVMTQSPATLSLSPGERATLSCRASQDISKYLNWYQQKPGQAPRLLIYHTSRLHSGIPARFSGSGSGTDYTLTISSLQPEDFAVYFCQQGNTLPYTFGQGTKLEIKGGGGSGGGGSGGGGSQVQLQESGPGLVKPSETLSLTCTVSGVSLPDYGVSWIRQPPGKGLEWIGVIWGSETTYYNSSLKSRVTISKDNSKNQVSLKLSSVTAADTAVYYCAKHYYYGGSYAMDYWGQGTLVTVSSTREQKLISEEDGSGIQNPDPAVYQLRDSKSSDKSVCLFTDFDSQTNVSQSKDSDVYITDKCVLDMRSMDFKSNSAVAWSNKSDFACANAFNNSIIPEDTFFPSSDVPCDVKLVEKSFETDTNLNFQNLSVIGFRILLLKVAGFNLLMTLRLWSSRAKRSGSGVKQTLNFDLLKLAGDVESNPGPSRGHMTEYKPTVRLATRDDVPRAVRTLAAAFADYPATRHTVDPDRHIERVTELQELFLTRVGLDIGKVWVADDGAAVAVWTTPESVEAGAVFAEIGPRMAELSGSRLAAQQQMEGLLAPHRPKEPAWFLATVGVSPDHQGKGLGSAVVLPGVEAAERAGVPAFLETSAPRNLPFYERLGFTVTADVEVPEGPRTWCMTRKPGA | – | NALM6 | RAJI | – | – | – | – | – |
